Results taken from patent US20260167721A1 (ABLEXIS, published 2026).
Positions count from the first letter of the chain named.

B1: ABL-CD3-86 (antibody, V domains shown)
VH: EVQLVESGGGLVKPGGSLRLSCAASGFTFSRYSMNWVRQAPGKGLEWVSTISRSSRYIYYGDSVKGRFTISRDNAKNSLLLQMNSLRAEDTAVYYCARDHNWSFDYWGKGILVTVSS
VL: NFMLTQPLSVSESPGKTLTISCTRNSGSIASNYVQWYRQRPGSSPTTVIYEDKQRPSGVPDRFSGSIDSSSNSASLTISGLKAEDEADYYCQSCDSSNVVFGGGTTLTVL
notes: mAb purified from hybridoma; chimeric AlivaMab IgG (human VH, CH1 and upper hinge; mouse middle hinge, CH2, CH3; human light chain)
B2: ABL-CD3-4 (antibody, V domains shown)
VH: VQLVESGGGLVKPGGSLRLSCAASGFTFSSYNMNWVRQAPGKGLEWVSSISSSSSYIYYADSVKGRFTISRDNAKNSLYLQMNSLRAEDTAVFYCARAERGSYAFDIWGQGTMVTVSS
VL: not shown
notes: Chimeric hybridoma mAb: human V, CH1, upper hinge; mouse middle hinge, CH2, CH3
B3: ABL-CD3-5 (antibody, V domains shown)
VH: EVQLVESGGGLVQPGGSLRLSCAASGFTFSRYSMNWVRQAPGKGLEWVSYISSSSSSIYYADSVKGRFTISRDNAKNSLYLQMNSLRDEDTAVYYCARDRRATLDYWGQGTLVTVSS
VL: B1 VL with L8H, L18V, N25S, R38Q, K53N, A83T, C94Y, V99H, T106K
notes: as for B2
B4: ABL-CD3-53 (antibody, V domains shown)
VH: EVQLVESGGGLVKPGGSLRLSCAASGFTFSSYTMNWVRQAPGKGLEWVSSITTSSSYIYYADSVKGRFTISRDNAKNSLYLQMNSLRAEDTAVYYCARVTFDAFDIWGQGTMVTVSS
VL: B1 VL with L8H, L18V, N25S, R38Q, K53N, A83T, C94Y, V99R, T106K
notes: as for B2
B5: ABL-CD3-48 (antibody, V domains shown)
VH: EVQLVESGGGLVKPGGSLRLSCAASGFTFSSYTMNWVRQAPGKGLEWVSSISGSGSYIYYADSVKGRFTISRDNAKNSLYLQMNSLRAEDTAVYYCAREPPTLGMDYWGQGTLVTVSS
VL: B1 VL with L8H, L18V, N25S, R38Q, K53N, A83T, C94F, V99R, T106K
notes: as for B2
B6: ABL-CD3-28 (antibody, V domains shown)
VH: QVQLQQSGPGLVKPSQTLSLTCAISGDSVSSNSVAWNWIRQSPSRGLEWLGRTYYRSKWYNECAGSVKSRITINPDTSKNQFSLQLNSVTPEDTAIYYCARERKWELFLDYWGQGTLVTVSS
VL: B1 VL with L8H, L18V, N25S, R38Q, K53N, A83T, C94F, T106K
notes: as for B2
B7: ABL-CD3-20 (antibody, V domains shown)
VH: EVQLVESGGGLVKPGGSLRLSCAASGLTFSTYSMNWVRQAPGKGLEWVSSISSSGSYVYYADSVKGRFTMSRDNAKNSLYLQMNSLRAEDTAVYYCARERRELLFDYWGQGTLVTVSS
VL: NFMLTQPHSVSESPGKTVTISCTRSSGSIASNYVQWYQQRPGSSPTSVIYEDNQRPSGVPDRFSGSIDSSSNSASLTISGLKTEDEADYYCQSYDRSNRVFGGGTKLTVL
notes: as for B2
B8: ABL-CD3-7 (antibody, V domains shown)
VH: B5 VH with S31R, T33S, E46K, G53S, I58K
VL: B7 VL with S47T, Y94F, R96N
notes: as for B2
B9: ABL-CD3-24 (antibody, V domains shown)
VH: B5 VH with A23V, G53R, I58K, Y60N, A88V
VL: B7 VL with S47T, Y94F, D95Y, R96S, K106E
notes: as for B2
B10: ABL-CD3-10 (antibody, V domains shown)
VH: B6 VH with S31C, Y60H, C63Y, G65V, T72N, N74K, F82V, N87K, I96V
VL: B7 VL with S47T, V48M, Y94L, R96S, N98S, R99V
notes: as for B2
B11: ABL-CD3-26 (antibody, V domains shown)
VH: B5 VH with Q3H, T33S, G53S, G55S, S56T, P101R, T112I
VL: B7 VL with S47T, Q54H, Y90F, Y94F, R96S
notes: as for B2
B12: ABL-CD3-47 (antibody, V domains shown)
VH: EVQLVESGGGLVQPGGSLRLSCAASGFTFSRYSMNWVRQAPGKGLEWVSYISRSSTTIYYADSVKGRFTISRDNAKNSLYLQMNSLRDEDAAVYYCARERWELLYFDYWGQGTLVTVSS
VL: B7 VL with N32K, S47T, D95Y, R96S, S97N
notes: as for B2
B13: ABL-CD3-12 (antibody, V domains shown)
VH: B5 VH with G53R, G55S, I58K, T115I
VL: B7 VL with S26N, A30T, S47T, Y94F, R96N, G103E, G104K
notes: as for B2
B14: ABL-CD3-50 (antibody, V domains shown)
VH: B6 VH with Y55S, E62D, C63Y, G65V, Q85E, I96V
VL: B7 VL with S43I, S47T, Y94F, R96T, R99V
notes: as for B2
B15: ABL-CD3-3 (antibody, V domains shown)
VH: EVQLVESGGGLVKPGGSLRLSCAASGFTFSSYSMNWVRQAPGKGLEWVSYISRSSNYIHYADSVKGRFTIFRDNAKNSLYLQMNSLRVEDTAVYYCARAERGSYAVDIWGQGTMVTVSS
VL: not shown
notes: as for B2

The binders below were run against T1, recombinant human CD3 epsilon/delta heterodimer (human, UniProt P07766 23-126; P04234 22-105) (assay: BLI (Octet), mAb 5 ug/mL on FAB2G sensor, hCD3 E/D 200-50 nM).
T1 construct: Recombinant heterodimer used as analyte in Octet; also called hCD3 E/D; human CD3E/D
T1 sequence (P07766 23-126, stated change not applied, chain 1 of 2): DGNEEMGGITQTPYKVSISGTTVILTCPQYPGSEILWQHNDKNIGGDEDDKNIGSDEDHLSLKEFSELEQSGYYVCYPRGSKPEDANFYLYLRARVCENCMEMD
T1 sequence (P04234 22-105, stated change not applied, chain 2 of 2): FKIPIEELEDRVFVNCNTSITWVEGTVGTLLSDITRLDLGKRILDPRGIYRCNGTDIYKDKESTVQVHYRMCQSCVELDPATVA
Description: (§1) Samples were evaluated by flow cytometry analysis against Jurkat and human Pan-T cells (FIG. 1B) as well as by Octet against recombinant human CD3 proteins to evaluate apparent affinities and binding off-rates (Table 6, infra).
With B1 the Kd was 3.88 nM, the Response was 1.1 and the koff was 0.000711 s⁻¹. For the same binder, the kon was 184000 M⁻¹ s⁻¹.

The binders below were run against T2, recombinant human CD3 epsilon/gamma heterodimer (human, UniProt P07766 23-126; P09693 23-116) (assay: BLI (Octet), mAb 5 ug/mL on FAB2G sensor, hCD3 E/G 200-50 nM;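 also: antibodies purified from hybridoma supernatants, measured by Octet binding to recombinant human CD3 protein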).
T2 construct: Recombinant heterodimer used as analyte in Octet; also called hCD3 E/G
T2 sequence (P07766 23-126, chain 1 of 2): as the sequence (P07766 23-126, stated change not applied, chain 1 of 2) above
T2 sequence (P09693 23-116, chain 2 of 2): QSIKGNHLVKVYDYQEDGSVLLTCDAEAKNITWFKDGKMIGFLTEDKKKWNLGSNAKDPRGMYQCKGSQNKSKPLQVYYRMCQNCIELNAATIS
Description: as §1
B1 gave a Kd of 3.52 nM, a Response of 1.17 and a koff of 0.000558 s⁻¹. For the same binder, the kon was 158000 M⁻¹ s⁻¹.

Each binder was assayed against T3, recombinant human CD3 epsilon/delta heterodimer (human, UniProt P07766 23-126; P04234 22-105) (assay: Octet BLI, mAb on FAB2G sensor, hCD3 E/D 200-50 nM; R^2 0.99).
T3 construct: Recombinant protein in solution (200-50 nM) in the Octet assay; also called hCD3 E/D; human CD3E/D
T3 sequence (P07766 23-126, stated change not applied, chain 1 of 2): as the sequence (P07766 23-126, stated change not applied, chain 1 of 2) above
T3 sequence (P04234 22-105, stated change not applied, chain 2 of 2): as the sequence (P04234 22-105, stated change not applied, chain 2 of 2) above
With B2 the Kd was 94.5 nM, the Response was 0.32 and the koff was 0.0302 s⁻¹. For the same binder, the kon was 320000 M⁻¹ s⁻¹. In the case of B3, the Kd is reported as 88.1 nM, the Response is reported as 0.36 and the koff is reported as 0.0321 s⁻¹. For the same binder, the kon was 365000 M⁻¹ s⁻¹. B4 gave a Kd of 146 nM, a Response of 0.24 and a koff of 0.0199 s⁻¹. The kon was 136000 M⁻¹ s⁻¹. Work on B5 yielded a Kd of 11.5 nM, a Response of 1.17 and a koff of 0.00114 s⁻¹. The kon was 99300 M⁻¹ s⁻¹. In the case of B6, the Kd is reported as 7.88 nM, the Response is reported as 0.77 and the koff is reported as 0.00133 s⁻¹. For the same binder, the kon was 168000 M⁻¹ s⁻¹. With B7 the Kd was 10.5 nM, the Response was 0.51 and the koff was 0.00229 s⁻¹. For the same binder, the kon was 219000 M⁻¹ s⁻¹. B8 was tested, and the Kd was 4.14 nM, the Response was 0.86 and the koff was 0.000786 s⁻¹. The kon was 190000 M⁻¹ s⁻¹. B9 showed a Kd of 5.78 nM, a Response of 0.93 and a koff of 0.00101 s⁻¹. For the same binder, the kon was 175000 M⁻¹ s⁻¹. Work on B10 yielded a Kd of 2.47 nM, a Response of 0.52 and a koff of 0.00046 s⁻¹. For the same binder, the kon was 186000 M⁻¹ s⁻¹. B11 showed a Kd of 6.66 nM, a Response of 1.03 and a koff of 0.00104 s⁻¹. It also gave a kon of 156000 M⁻¹ s⁻¹. For B12, the Kd was 16.9 nM, the Response was 0.62 and the koff was 0.00291 s⁻¹. It also gave a kon of 172000 M⁻¹ s⁻¹. Work on B13 yielded a Kd of 10.6 nM, a Response of 1.21 and a koff of 0.00144 s⁻¹. It also gave a kon of 136000 M⁻¹ s⁻¹. Binder B14 has a Kd of 21 nM, a Response of 0.57 and a koff of 0.0047 s⁻¹. The kon was 224000 M⁻¹ s⁻¹. In the case of B15, the Kd is reported as 10.4 nM, the Response is reported as 1.03 and the koff is reported as 0.0012 s⁻¹. It also gave a kon of 116000 M⁻¹ s⁻¹.

The binders below were run against T4, recombinant human CD3 epsilon/gamma heterodimer (human, UniProt P07766 23-126; P09693 23-116) (assay: Octet BLI, mAb on FAB2G sensor, hCD3 E/G 200-50 nM; R^2 0.99).
T4 construct: Recombinant protein in solution (200-50 nM) in the Octet assay; also called hCD3 E/G
T4 sequence (P07766 23-126, chain 1 of 2): as the sequence (P07766 23-126, stated change not applied, chain 1 of 2) above
T4 sequence (P09693 23-116, chain 2 of 2): as the sequence (P09693 23-116, chain 2 of 2) above
B2 gave a Kd of 91.9 nM, a Response of 0.36 and a koff of 0.0221 s⁻¹. The kon was 241000 M⁻¹ s⁻¹. In the case of B3, the Kd is reported as 106 nM, the Response is reported as 0.27 and the koff is reported as 0.0449 s⁻¹. The kon was 423000 M⁻¹ s⁻¹. For B4, the Kd was 88.7 nM, the Response was 0.4 and the koff was 0.00714 s⁻¹. The kon was 80500 M⁻¹ s⁻¹. In the case of B5, the Kd is reported as 17.9 nM, the Response is reported as 1.03 and the koff is reported as 0.00179 s⁻¹. It also gave a kon of 100000 M⁻¹ s⁻¹. B6 was tested, and the Kd was 5.6 nM, the Response was 0.77 and the koff was 0.000798 s⁻¹. It also gave a kon of 143000 M⁻¹ s⁻¹. B7 was tested, and the Kd was 18.3 nM, the Response was 0.45 and the koff was 0.00379 s⁻¹. For the same binder, the kon was 207000 M⁻¹ s⁻¹. In the case of B8, the Kd is reported as 8.42 nM, the Response is reported as 0.81 and the koff is reported as 0.00142 s⁻¹. The kon was 169000 M⁻¹ s⁻¹. B9 showed a Kd of 8.48 nM, a Response of 0.89 and a koff of 0.00134 s⁻¹. For the same binder, the kon was 158000 M⁻¹ s⁻¹. Binder B10 has a Kd of 2.41 nM, a Response of 0.46 and a koff of 0.00039 s⁻¹. It also gave a kon of 162000 M⁻¹ s⁻¹. Work on B11 yielded a Kd of 9.31 nM, a Response of 1.01 and a koff of 0.00123 s⁻¹. For the same binder, the kon was 132000 M⁻¹ s⁻¹. In the case of B12, the Kd is reported as 36.2 nM, the Response is reported as 0.43 and the koff is reported as 0.00785 s⁻¹. It also gave a kon of 217000 M⁻¹ s⁻¹. For B13, the Kd was 10.5 nM, the Response was 1.14 and the koff was 0.00124 s⁻¹. For the same binder, the kon was 118000 M⁻¹ s⁻¹. In the case of B14, the Kd is reported as 12.6 nM, the Response is reported as 0.6 and the koff is reported as 0.00247 s⁻¹. For the same binder, the kon was 196000 M⁻¹ s⁻¹. B15 showed a Kd of 12.4 nM, a Response of 0.96 and a koff of 0.00143 s⁻¹. It also gave a kon of 115000 M⁻¹ s⁻¹.
